Experimental data reported in paper doi:10.1101/2021.05.10.443412.

Assays:
[1] = molecular target: T1, factor inhibiting HIF-1 (FIH-1), full-length (human), Q9NWT6; experiment: SEC-MALS; conditions: remark: other sources report otherwise
[2] = molecular target: T1, factor inhibiting HIF-1 (FIH-1), …; experiment: SEC; conditions: remark: other sources report otherwise

B1: factor inhibiting HIF-1 (FIH-1), full-length, Q9NWT6 1-349 (enzyme)
chain: MAATAAEAVASGSGEPREEAGALGPAWDESQLRSYSFPTRPIPRLSQSDPRAEELIENEEPVVLTDTNLVYPALKWDLEYLQENIGNGDFSVYSASTHKFLYYDEKKMANFQNFKPRSNREEMKFHEFVEKLQDIQQRGGEERLYLQQTLNDTVGRKIVMDFLGFNWNWINKQQGKRGWGQLTSNLLLIGMEGNVTPAHYDEQQNFFAQIKGYKRCILFPPDQFECLYPYPVHHPCDRQSQVDFDNPDYERFPNFQNVVGYETVVGPGDVLYIPMYWWHHIESLLNGGITITVNFWYKGAPTPKRIEYPLKAHQKVAIMRNIEKMLGEALGNPQEVGPLLNTMIKGRYN
[1]
  stoichiometry N: 2
[2]
  stoichiometry N: 2
